The test system of the series is Escherichia coli TOP10. In words: shrunken log2 fold change of peptide-encoding DNA abundance (4.5 h post-induction vs induction); higher = less antimicrobial activity (less host growth inhibition). As to conditions: time post-induction: 4.5 h; library: site-saturation at positions 5, 18, 19, 20.
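Further: peptides expressed intracellularly from a pBAD plasmid library in pooled LB shake-flask culture, induced with 0.3% L-arabinose, DNA abundance read by NGS, three biological replicates, DESeq2 with apeglm shrinkage.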

For RRIRPRPPRLPRPRPRPQGSPRP, the “shrunken log2 fold change” value amounted to 0.0552.

With RRIRARPPRLPRPRPRPTSEPRP, the “shrunken log2 fold change” value was found to be 0.751.

With RRIRIRPPRLPRPRPRPQFAPRP, the “shrunken log2 fold change” value is -0.0319.

With RRIRWRPPRLPRPRPRPKFIPRP, the “shrunken log2 fold change” value is -0.17.

In the case of RRIRCRPPRLPRPRPRPIEGPRP, the “shrunken log2 fold change” value stood at 0.119.

On to RRIRYRPPRLPRPRPRPGFVPRP, for which the “shrunken log2 fold change” value is 0.0168.

As for RRIRPRPPRLPRPRPRPSWLPRP, the “shrunken log2 fold change” value was -0.0766.

Take RRIRHRPPRLPRPRPRPTISPRP: the “shrunken log2 fold change” value was -0.495.

As for RRIRERPPRLPRPRPRPGIEPRP, the “shrunken log2 fold change” value stood at 0.00615.

Regarding RRIRMRPPRLPRPRPRPAGYPRP, the “shrunken log2 fold change” value was 0.572.

Turning to RRIRHRPPRLPRPRPRPAPCPRP, the “shrunken log2 fold change” value stood at 0.288.

Take RRIRYRPPRLPRPRPRPHHKPRP: the “shrunken log2 fold change” value was -0.319.

With RRIRPRPPRLPRPRPRPDNDPRP, the “shrunken log2 fold change” value stood at 0.0931.

On to RRIRYRPPRLPRPRPRPEYTPRP, for which the “shrunken log2 fold change” value is -0.542.

For the sequence RRIRARPPRLPRPRPRPQTSPRP, the “shrunken log2 fold change” value came to 0.00801.

On to RRIRTRPPRLPRPRPRPKRAPRP, for which the “shrunken log2 fold change” value worked out at 0.273.

With RRIRNRPPRLPRPRPRPGARPRP, the “shrunken log2 fold change” value was 0.582.

Regarding RRIRKRPPRLPRPRPRPLLYPRP, the “shrunken log2 fold change” value turned out to be 0.0166.

As to RRIRFRPPRLPRPRPRPHYWPRP, the “shrunken log2 fold change” value was -0.505.

As to RRIRGRPPRLPRPRPRPQVSPRP, the “shrunken log2 fold change” value came to 0.0928.

For the sequence RRIRIRPPRLPRPRPRPYGNPRP, the “shrunken log2 fold change” value was -1.18.

Regarding RRIRMRPPRLPRPRPRPITRPRP, the “shrunken log2 fold change” value is 0.248.

In the case of RRIRARPPRLPRPRPRPHWEPRP, the “shrunken log2 fold change” value was -0.00635.

In the case of RRIRPRPPRLPRPRPRPDGVPRP, the “shrunken log2 fold change” value turned out to be 0.14.

On to RRIRRRPPRLPRPRPRPLGIPRP, for which the “shrunken log2 fold change” value was 0.984.

Consider RRIRERPPRLPRPRPRPLSQPRP, for which the “shrunken log2 fold change” value is -0.406.

As for RRIRDRPPRLPRPRPRPYNWPRP, the “shrunken log2 fold change” value is -0.281.

Consider RRIRPRPPRLPRPRPRPWYHPRP, for which the “shrunken log2 fold change” value is -0.516.

For the sequence RRIRGRPPRLPRPRPRPTVAPRP, the “shrunken log2 fold change” value is 1.99.

With RRIRRRPPRLPRPRPRPAKHPRP, the “shrunken log2 fold change” value worked out at 0.219.

On to RRIRIRPPRLPRPRPRPRCCPRP, for which the “shrunken log2 fold change” value is -0.181.

As to RRIRIRPPRLPRPRPRPNPGPRP, the “shrunken log2 fold change” value was -0.209.

In the case of RRIRMRPPRLPRPRPRPPQSPRP, the “shrunken log2 fold change” value is 0.721.

For RRIRKRPPRLPRPRPRPKVLPRP, the “shrunken log2 fold change” value is 0.0605.

With RRIRKRPPRLPRPRPRPNCDPRP, the “shrunken log2 fold change” value was 0.142.

Turning to RRIRPRPPRLPRPRPRPIWEPRP, the “shrunken log2 fold change” value was found to be 0.0926.

Take RRIRWRPPRLPRPRPRPQLAPRP: the “shrunken log2 fold change” value stood at 0.351.

As for RRIRHRPPRLPRPRPRPIIDPRP, the “shrunken log2 fold change” value was -0.0219.

Take RRIRFRPPRLPRPRPRPVKIPRP: the “shrunken log2 fold change” value is -0.0378.

For RRIRQRPPRLPRPRPRPDFKPRP, the “shrunken log2 fold change” value is -0.229.

Regarding RRIRTRPPRLPRPRPRPVIMPRP, the “shrunken log2 fold change” value was -0.181.

On to RRIRWRPPRLPRPRPRPCIHPRP, for which the “shrunken log2 fold change” value is -0.0458.

On to RRIRDRPPRLPRPRPRPVIRPRP, for which the “shrunken log2 fold change” value was -0.19.

As to RRIRVRPPRLPRPRPRPNPSPRP, the “shrunken log2 fold change” value stood at 0.0073.

Regarding RRIRSRPPRLPRPRPRPSFNPRP, the “shrunken log2 fold change” value is -0.644.

For the sequence RRIRVRPPRLPRPRPRPCIMPRP, the “shrunken log2 fold change” value was -0.514.

For the sequence RRIRNRPPRLPRPRPRPSSCPRP, the “shrunken log2 fold change” value was -0.063.

For RRIRSRPPRLPRPRPRPLQSPRP, the “shrunken log2 fold change” value was found to be 0.49.

As to RRIRERPPRLPRPRPRPIAQPRP, the “shrunken log2 fold change” value is -0.0491.

Turning to RRIRGRPPRLPRPRPRPGHKPRP, the “shrunken log2 fold change” value worked out at 0.173.
